{"source": "patent US20230035798A1", "about": "(CAPELLA BIOSCIENCE, published 2023)", "key": {"[1]": {"target": "T1, human LIGHT (TNFSF14), full length, membrane-bound (214E allele) (human, UniProt O43557 1-240)", "T1 construct": "also called membrane LIGHT; human membrane LIGHT", "test": "competition with biotin-HVEM-Fc, EL4-LIGHT cells, flow cytometry", "experimental": "(§1) Biotin-LTβR-Fc and biotin-HVEM-Fc were prepared using a kit purchased from ThermoFisher (EZ-Link NHS-LC-Biotin; cat. no. 21336) according to the manufacturer's instructions. […] The diluent used was FACS buffer. The cells were washed 3 times with FACS buffer and biotin-LTβR-Fc and biotin-HVEM-Fc binding detection to cells was performed with streptavidin-APC (1:400; BioLegend cat. No. 405207) for 30 min at 4° C. and fluorescence read in the RL-1 channel. The anti-HEL mAb 2A11 was utilised as a background control.\n(§2) The above experiment was repeated utilising LIGHT stably expressed on EL4-cells and the results depicted in Table 11B."}, "[2]": {"target": "T2, membrane LIGHT without residues 81-84 (EL4-NC-LIGHT cells) (human, UniProt O43557 1-240)", "T2 sequence (O43557 other isoform, or with tags, fused parts or gaps)": "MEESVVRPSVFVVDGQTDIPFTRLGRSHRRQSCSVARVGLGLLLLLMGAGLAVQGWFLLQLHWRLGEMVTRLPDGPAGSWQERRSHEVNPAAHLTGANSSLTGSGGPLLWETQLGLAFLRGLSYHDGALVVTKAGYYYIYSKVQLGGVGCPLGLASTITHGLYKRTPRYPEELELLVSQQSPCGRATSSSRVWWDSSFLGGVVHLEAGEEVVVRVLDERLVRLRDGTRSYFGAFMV", "test": "cell-based or functional assay"}, "[3]": {"target": "T1, human LIGHT (TNFSF14), full length, …", "test": "DcR3-His (1 nM) competition, EL4-LIGHT, flow cytometry; 1.23 nM", "experimental": "(§3) EL4-LIGHT cells (0.25×10⁶) were preincubated with anti-membrane LIGHT mAbs (0-300 nM) for 15 min at 4° C. followed by incubation with DcR3-His tagged (1 nM, Creative BioMart; ref: TNFRSF6B-552H, lot: 962512) for 30 min at 4° C. The samples were then incubated with mouse anti-histag antibody (diluted 1:500, Biolegend, cat. no. 652502) for 30 minutes at 4° C., followed by incubation with anti-mouse APC (dil 1:500, BDBiosciences, cat. no. 550826) for 30 minutes at 4° C. The tubes were washed three times after each of the detection antibody stages and flow cytometry analysis was performed. Specific mean fluorescence intensity (MFI) obtained from the binding of DcR3-His to LIGHT on EL4 cells were used to determine the levels of competition binding.\n(§4) In humans, LIGHT is neutralized by DcR3, a unique soluble member of the TNFR superfamily, which tightly binds LIGHT (both soluble and membrane forms) and inhibits its interactions with HVEM and LTβR. A major binding determinant for DcR3 neutralization is the region T170-E178 on LIGHT (Liu et al. Structure 2014: 9; 1252-1262). […] In contrast the anti-LIGHT mAb F19, (from EP2292663) which binds both soluble LIGHT and membrane LIGHT equally well completely displaces DcR3 from binding to membrane LIGHT highlighting a surprising an important functional difference between the anti-membrane LIGHT mAbs of this invention and other neutralizing anti-LIGHT mAbs that have been raised against or screened against soluble LIGHT."}, "[4]": {"target": "T1, human LIGHT (TNFSF14), full length, …", "test": "DcR3-His (1 nM) competition, EL4-LIGHT, flow cytometry; 0.41 nM", "experimental": "as §3, §4"}, "[5]": {"target": "T3, recombinant human soluble LIGHT, amino acids 74-240 (R&D Systems 664-LI-025) (human, UniProt O43557 74-240)", "T3 chain": "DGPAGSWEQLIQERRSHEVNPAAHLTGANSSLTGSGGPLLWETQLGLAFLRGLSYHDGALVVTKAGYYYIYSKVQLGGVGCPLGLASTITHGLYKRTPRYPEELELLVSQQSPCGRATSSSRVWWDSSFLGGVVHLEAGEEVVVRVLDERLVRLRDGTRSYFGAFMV", "test": "cell-based or functional assay"}, "[6]": {"target": "T2, membrane LIGHT without residues 81-84 …", "test": "cell-based or functional assay", "remark": "listed apart in the source"}, "[7]": {"target": "T1, human LIGHT (TNFSF14), full length, …", "test": "KD calculated from EC50 on EL4-LIGHT cells, flow cytometry"}, "[8]": {"target": "T1, human LIGHT (TNFSF14), full length, …", "test": "soluble LIGHT 74-240 KD over membrane LIGHT KD"}, "[9]": {"target": "T3, recombinant human soluble LIGHT, amino …", "test": "SPR (BIAcore), as for Table 9", "experimental": "Real-time binding interactions between captured antibody (chimeric anti-membrane LIGHT monoclonal antibody) captured on a biosensor matrix via goat anti-human Fe IgG and recombinant soluble LIGHT were measured by surface plasmon resonance (SPR) using the BIAcore system (GE Healthcare) according to manufacturer's instructions and standard procedures. Briefly, soluble LIGHT was diluted in HBS running buffer (GE Healthcare) and aliquots were injected through the immobilized protein matrices at a flow rate of […]. BIAevaluation software was used to calculate association rate (ka), dissociation rate (kd) and affinity (KD).\nThe specificity of further anti-membrane LIGHT mAbs to soluble LIGHT was determined by using the same BIAcore analysis discussed above which was used to generate the data in Table 9. In brief, mAbs 3B04, 3D12, 3A07, 3C10 and 2B11 were compared to various prior art antibodies, (F19 and F23 IgG4 mAbs from EP2292663 and 1C02, 13H04 and 31A10 mAbs from WO2015/107331)."}, "[10]": {"target": "T1, human LIGHT (TNFSF14), full length, …", "test": "competition with biotin-LTβR-Fc, EL4-LIGHT cells, flow cytometry", "experimental": "as §1, §2"}, "[11]": {"target": "T2, membrane LIGHT without residues 81-84 …", "test": "cell-based or functional assay", "remark": "listed apart in the source"}, "[12]": {"target": "T1, human LIGHT (TNFSF14), full length, …", "test": "membrane LIGHT on cells, as for Table 9"}}, "note": "Read-outs that look alike come from different tables or passages of the source.", "data": [{"binder": "3D12 (antibody, human IgG4, V domains shown, chimeric: mouse variable domains on human IgG4 HC (S-to-P and L-to-E at 248) and human CL; also called Parental 3D12; 3D12 chimeric) VH: QVQLQQPGAELVRPGASVTLSCKASDYTFTDSEIHWVKQTPVHGLEWIGEIDPETGGTAYNQKFKGKATLTADKSSSTAYMELRSLTSEDSAVYYCSRETDYFFDYWGQGTTLTVSS VL: DIQMTQSPASLSASVGETVTITCGASENIYGALNWYQRKQGKSPQLLIYGATNLADGMSSRFSGSGSGRQYSLKISSLHPDDVATYYCQNVLSTPWTFGGGTKLEIKR", "values": [{"measurement": "IC50", "setting": "[1]", "value": 160, "unit": "pM"}, {"measurement": "IC50, inhibition of IL-8 secretion from HT-29 cells (EL4-NC-LIGHT cells)", "setting": "[2]", "value": 100, "unit": "pM"}, {"measurement": "DcR3-His binding, % of irrelevant mAb", "setting": "[3]", "value": 72.8, "unit": "%"}, {"measurement": "DcR3-His binding, % of irrelevant mAb", "setting": "[4]", "value": 99.4, "unit": "%"}, {"measurement": "IC50, nM soluble LIGHT (5 ng/ml; IL-8 release from HT-29 cells)", "setting": "[5]", "value": 3.4, "unit": "nM"}, {"measurement": "IC50, nM membrane LIGHT (IL-8 release from HT-29 cells)", "setting": "[6]", "value": 0.1, "unit": "nM"}, {"measurement": "Kd", "setting": "[7]", "value": 200, "unit": "pM"}, {"measurement": "Membrane:soluble LIGHT affinity ratio", "setting": "[8]", "value": 18.9}, {"measurement": "Kd", "setting": "[9]", "value": 3600, "unit": "pM"}, {"measurement": "IC50", "setting": "[10]", "value": 190, "unit": "pM"}, {"measurement": "IC50, inhibition of IL-8 secretion from HT-29 cells (EL4-NC-LIGHT cells)", "setting": "[11]", "value": 320, "unit": "pM"}, {"measurement": "Kd", "setting": "[12]", "value": 190, "unit": "pM"}]}]}
